# Experimental data from PMC6208348 (Nature Communications, 2018).
# Non-standard residues stand in square brackets, D forms with d. No end group written: not given here. pY = N[C@@H](Cc1ccc(OP(=O)(O)O)cc1)C(=O)O
# Target: wild-type Src SH2 domain (UniProt P12931 151-248)
# Assay: fluorescence polarisation
# Details: both partners purified
binder,measurement,value
GG[pY]GG (source: synthetic peptide) [mini peptide GGpYGG],Kd,> 50 µM
